The values that follow come from the supplement of paper PMC12042874.

± gives the uncertainty stated by the source.

A short description of the series: amyloid nucleation score (Sup35N fusion, yeast selection) (log enrichment); library NNK1; higher = more nucleation; inactive = no reads after selection. The procedure, abridged: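 Growth for 7 days at 30°C on medium lacking adenine and uracil followed a 24-hour induction with 100 μM copper sulfate of psi-negative yeast expressing peptides of 20 random codons fused to Sup35N. Input and output plasmid inserts were sequenced with Illumina, and sequences with under 100 input reads were excluded. Nucleation score is the DiMSum log enrichment of output over input reads, centred on the mode score of non-aggregating sequences.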
For the substance FTISSKLRYIGTGVINGPVD, the amyloid nucleation score is -0.397 ± 0.56.
For FTKFRYRTLINSYNFWGTGA, the amyloid nucleation score is -0.115 ± 1.4.
With FTLCQASYMN, the amyloid nucleation score was -0.655 ± 0.67.
As for FTLIIRDLMFSRHEFRVHAG, the amyloid nucleation score is -0.213 ± 0.39.
With FTLSKTILDRSFLWIQGLWS the figure was -0.354 ± 0.81; with FTMKMGYMVAFIW, -0.394 ± 0.25; with FTNRTIFFV, -0.023 ± 0.91.
FTSSIMEFNESQWVNFTFIW displayed an amyloid nucleation score of 4.42 ± 0.053.
On to FTSSVIILCIFYWNGLVRIF, for which the amyloid nucleation score is -0.505 ± 1.5.
In the case of FTYIISRISFMRDWVF it was -0.257 ± 1.4; in that of FVAISVSTIRQCGVCRGGTC, 4.29 ± 0.12; in that of FVCRFQYFSRYATNYFYVWC, “inactive”.
In the case of FVFSGFYT, the amyloid nucleation score stood at 0.353 ± 0.21.
FVGEN yielded an amyloid nucleation score of 0.281 ± 0.52.
In the case of FVGMSRFFKVH it was -0.629 ± 0.39.
In turn, FVGRSVCAKMTPHRLTAIGP showed an amyloid nucleation score of -0.082 ± 0.67.
With FVGSSFGDDFISVSIHSWRP the entry was “inactive”.
Substance FVIFSIELCGHRATSSSFNL showed an amyloid nucleation score of 5.565 ± 0.047.
Take FVKFVTSEAFDHVLRTNWN: the amyloid nucleation score entry is “inactive”.
Turning to FVKVAPANKGISGKRDLCKL, the amyloid nucleation score was found to be 0.215 ± 0.3.
With FVLQKGYK the figure was 0.2 ± 0.59; with FVMLGWFSRNIGLYEVFVFT, 0.502 ± 0.36.
With FVSLNTIFRAYPQIHYRLVR, the amyloid nucleation score entry was “inactive”.
In the case of FVSVAQVEE, the amyloid nucleation score was -1.2 ± 1.
Take FVSVCD: the amyloid nucleation score is -0.049 ± 1.
Take FVSVWDILL: the amyloid nucleation score is -0.049 ± 0.27.
FVVIEILDFSPFDHCFIILE had an amyloid nucleation score of 1.26 ± 0.48.
In turn, FVVLSRFACRLRLTR returned an amyloid nucleation score of 0.853 ± 0.55.
With FWANH, the amyloid nucleation score entry was “inactive”.
The substance FWLCRYTIGSRLLFVVQTST registered an amyloid nucleation score of 0.986 ± 0.65.
In the case of FWNMWAYEMRFVLRNYAL it was -0.908 ± 0.43; in that of FWSHHPHTNENMCTYTNLSW, “inactive”; in that of FWSMIGLWILDC, 0.031 ± 0.25.
For the substance FWSWSV, the amyloid nucleation score was -0.222 ± 0.42.
For FWVAIRVRVIWVNKKNDGCI, the amyloid nucleation score is -0.147 ± 0.66.
For the substance FWVQNMVGNFFNYYFDRGNQ, the amyloid nucleation score amounted to 7.791 ± 0.045.
FYARMLYYA: the amyloid nucleation score result is “inactive”.
As to FYFRNSSGF, the amyloid nucleation score turned out to be 2.49 ± 0.58.
In the case of FYGEGNFRGKTYVFTVPVVK it was -1.21 ± 2.4; in that of FYGVRVTGAAFRALVMVSPR, 0.616 ± 1.1.
With FYIVFFTCLASSS, the amyloid nucleation score is 1.94 ± 0.29.
With FYKLVSLREIGMIQVIRGLD the figure was -0.395 ± 0.47.
Take FYKQLYSAEHKKFSCTAFVK: the amyloid nucleation score result was “inactive”.
FYLGPCYAVIWVNFQLPLGV came in with an amyloid nucleation score of 0.596 ± 0.33.
FYMRSFLFDFQLFHVVGIWF: the amyloid nucleation score is -0.929 ± 0.39.
As to FYQLYLINSTCHGRSRYILS, the amyloid nucleation score was determined as 0.155 ± 0.51.
With FYVPDWYNCSCIIWGRDACA, the amyloid nucleation score is 4.19 ± 0.056.
In the case of FYYGSLPYCVTKRFRDFGNQ it was 3.02 ± 0.18.
The substance FYYVRLDARMVDSSSFV returned an amyloid nucleation score of -0.542 ± 0.28.
With FYYYSEFLGPIVYPQHDLLL the figure was -0.1 ± 1.1; with GAFWGFFFKCLSTTLNNSWL, “inactive”.
GAIDRGCVDLARTCSLGLTG: the amyloid nucleation score is 0.508 ± 0.56.
With GAKYMNMRIRRTSFGSAYQS the figure was 0.335 ± 0.48; with GALSNSSMWFGMYVNPLGTY, “inactive”; with GALVYAFYAAS, 0.525 ± 0.89.
GASCTLISCLLLLHSAWSLS gave an amyloid nucleation score of 0.237 ± 0.59.
The substance GAVIVCVYMQALVVIDRASA returned an amyloid nucleation score of -0.62 ± 0.94.
GCEFWSYTLTLRGKNACNKL yielded an amyloid nucleation score of -0.234 ± 0.42.
In the case of GCFASTSNTRC, the amyloid nucleation score turned out to be 1.05 ± 0.66.
In the case of GCFSPITQWSMWHVWRVRRQ it was 0.49 ± 0.97; in that of GCGMDGWDVQ, 0.103 ± 0.25; in that of GCLRVSDTIRGMPRQSLDWA, 0.445 ± 0.28.
Regarding GCVLFDLSHL, the amyloid nucleation score was -1.92 ± 2.4.
Take GCVTYIYGCMLYCEEAFR: the amyloid nucleation score was 5.17 ± 0.085.
With GCYSQNICCVTCIKRRSIVS, the amyloid nucleation score is -1.02 ± 0.69.
In the case of GDANLGKQLWRGWNVG it was 0.228 ± 1.2; in that of GDELKRVWYLGTLSRMRGTE, -0.574 ± 0.62.
In the case of GDIVQLGPKFCKLYLCIWNC it was 6.369 ± 0.056; in that of GDSWRSYLRILGTYMVRRWC, 0.244 ± 0.54; in that of GDVPYRNMHCPRFLMREMVV, 0.354 ± 0.25.
In the case of GDVSRQTVEV, the amyloid nucleation score is -0.094 ± 0.43.
With GEERFYSLKYCCKGRLWRPG the figure was 0.179 ± 0.43; with GEHSLSIICCVLCTVGDGPN, 7.611 ± 0.058.
GEIGKKNY showed an amyloid nucleation score of 1.2 ± 0.35.
In the case of GFALECESEVWSCYYTIRII it was 0.444 ± 0.43.
As to GFKRRYCDNISAIHPDSGCK, the amyloid nucleation score entry is “inactive”.
As for GFLSATWCSQWSIILVKERG, the amyloid nucleation score worked out at 1.48 ± 0.45.
Regarding GFLTETDNCTICIFHMFVDN, the amyloid nucleation score is 6.201 ± 0.059.
GFNIDT: the amyloid nucleation score amounted to 0.689 ± 1.2.
Take GFRLMLFVRTM: the amyloid nucleation score was determined as 1.04 ± 0.45.
As for GFRPEMHGV, the amyloid nucleation score result is “inactive”.
In the case of GFTTMEDCGPREGPTIVDDK it was -0.149 ± 1.3; in that of GFVEVNTCLKEVSLPSNMPS, 0.714 ± 0.5.
With GFVTWPLSRSPGSPGCAALM the figure was 0.015 ± 0.39.
The substance GFWAKSPLAGHSYKGYQLWA came in with an amyloid nucleation score of 1.62 ± 0.57.
GFWDFWVGRCLSSYVQFANL registered an amyloid nucleation score of 0.28 ± 0.48.
Substance GGCMV gave an amyloid nucleation score of 0.493 ± 0.42.
Turning to GGIGDQVITRNVGRPREYQR, the amyloid nucleation score amounted to 1.34 ± 0.76.
As for GGLGTPFFHAPSHMWVKW, the amyloid nucleation score is -0.551 ± 0.55.
With GGRKKQLLDNYKGTYLVARI, the amyloid nucleation score was -0.096 ± 1.1.
In the case of GGRLEKRTCASCTSGQVVGV it was 0.294 ± 0.42; in that of GGRLNQHLRSNNTGTHHPGY, -0.533 ± 0.31.
For the substance GGRLTRQRIVSVLLYVGVAG, the amyloid nucleation score stood at 0.077 ± 0.69.
In turn, GGWGRGECPYSHTKWYVKSG returned an amyloid nucleation score of -0.999 ± 0.94.
The substance GHFRSASRKYALTV gave an amyloid nucleation score of -0.619 ± 0.51.
In turn, GHLWWSVLLVPLFTVGSTSV registered an amyloid nucleation score of 0.399 ± 0.56.
With GHSRSSGLLKKFCVKSRQDA the figure was 0.234 ± 0.66; with GIEKLHDRITSLIFLSMGRR, 1.8 ± 0.19.
GILVCLNYLGLFVVYHGFVW: the amyloid nucleation score came to 1.33 ± 0.56.
With GIMTHVGRPKVTGCGRGKCT the figure was -0.165 ± 1.6; with GISCFHW, 1.98 ± 0.18.
GISSVG yielded an amyloid nucleation score of 0.677 ± 0.4.
With GIWSNCKYVFSGIMSSYMVS the figure was 0.739 ± 0.16; with GKCFVVMWRVLGVDSVLMEV, -0.414 ± 0.25.
In the case of GKCVTWQASCLQCSKSNWYQ it was 0.995 ± 0.81; in that of GKFLRGGHLVFRWATLYLSV, -0.604 ± 0.97; in that of GKGWYTDSMCRIRMMNARLL, 0.233 ± 0.34.
In the case of GKIYWLLLQTDKDRRFLTMR it was -0.744 ± 0.46; in that of GKLPYVFRDCNKTVLVMALF, 0.947 ± 0.73; in that of GKMMVFRVFFRFVPSESWVI, -0.638 ± 0.52.
GKPDKVHARGWFTLVNRWLR registered an amyloid nucleation score of 0.399 ± 0.73.
With GKRIYPWVLNRSH the figure was -0.209 ± 0.28; with GKSNLARHAPNLEVTMRGTE, 1.27 ± 0.42.
Turning to GKSRS, the amyloid nucleation score worked out at 0.784 ± 0.49.
For GKSWFGYCVSLVCMSWVLSD, the amyloid nucleation score came out at 0.67 ± 1.2.
In the case of GKVFVVSVKCNEVVDFGWCQ it was 0.073 ± 0.28; in that of GKYFLSICHDT, 0.033 ± 0.36.
Consider GLCDNHINVVVVS, for which the amyloid nucleation score was 0.788 ± 0.81.
In the case of GLFNSDRVNQWPPGPCRDYV it was 0.5 ± 0.28; in that of GLFYW, 1.06 ± 0.72; in that of GLHKYPCYPTNSRYVVVINM, 3.27 ± 0.066.
Turning to GLMGLFVKWYNVVQIFQSRM, the amyloid nucleation score is -0.437 ± 0.61.
With GLMNLVSDRMSWLNEV, the amyloid nucleation score is 0.485 ± 0.84.
Substance GLRWYQFEPTQG displayed an amyloid nucleation score of 0.126 ± 0.38.
Consider GLSGTSALPPGIS, for which the amyloid nucleation score was determined as 0.318 ± 0.79.
The substance GLSLIA yielded an amyloid nucleation score of 0.983 ± 0.76.
GLSQKVGKPAAALLRTMVSD gave an amyloid nucleation score of -0.309 ± 0.27.
In the case of GLTPMRHN, the amyloid nucleation score is -1.01 ± 1.1.
The substance GLTRFGGPSTMIFMDL yielded an amyloid nucleation score of -0.201 ± 0.8.
As to GLWMWEEVILISTLKLFVLV, the amyloid nucleation score amounted to 0.139 ± 0.6.
With GLYKYYRSLILSLVSFNFS the figure was 1.18 ± 0.16; with GLYLDFGYSGCYGKKL, 5.67 ± 0.082.
GMAVFV gave an amyloid nucleation score of 0.18 ± 1.1.
With GMEFMIMGNLVITGVIDKCH the figure was -0.262 ± 0.39.
In turn, GMGGGICSSEKMRCGNVEGV gave an amyloid nucleation score of -0.857 ± 0.34.
In the case of GMYRVNSWIMSL, the amyloid nucleation score entry is “inactive”.
In the case of GNALYICRF it was 0.572 ± 0.39; in that of GNANVKCGVRAISDNRARRI, 0.003 ± 0.43.
In the case of GNDNCVRHGGRSSSRCLMKL, the amyloid nucleation score entry was “inactive”.
